From article PMC2169363

Tests used:
[1] = target: phosphorylated smooth muscle myosin (chicken gizzard) (chicken) (UniProt P10587); test: co-sedimentation
[2] = target: unphosphorylated smooth muscle myosin (chicken gizzard) (chicken) (UniProt P10587); test: co-sedimentation

Substance	EC50 [1]	EC50 [2]	amount recovered in the precipitate with 1.1 μM myosin (4.0 μM added) [2]
38k protein (native, purified from chicken gizzard smooth muscle) (natural protein)	1.4 µM	1.7 µM	–
human p32 (recombinant) (from UniProt Q07021 74-282) (natural protein)	–	1.8 µM	–
recombinant 38k protein, full-length (1-207) (natural protein)	–	–	1 µM
